1 molecule from publication PMC3563936 can be followed below.

The target in this data set is T1, Dpo4 (Y-family DNA polymerase) (Sulfolobus solfataricus, UniProt Q97W02 1-352).
T1 sequence: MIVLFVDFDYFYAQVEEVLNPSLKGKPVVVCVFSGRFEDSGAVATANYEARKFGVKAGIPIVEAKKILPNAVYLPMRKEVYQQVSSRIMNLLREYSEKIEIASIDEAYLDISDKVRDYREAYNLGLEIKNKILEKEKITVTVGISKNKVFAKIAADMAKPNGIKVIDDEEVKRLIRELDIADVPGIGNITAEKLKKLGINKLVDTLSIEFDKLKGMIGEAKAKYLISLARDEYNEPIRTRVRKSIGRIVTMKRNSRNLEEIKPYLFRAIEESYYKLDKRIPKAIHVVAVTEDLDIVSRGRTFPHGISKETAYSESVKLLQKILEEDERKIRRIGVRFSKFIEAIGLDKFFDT
Briefly: X-ray crystallography.

B1: 14/18-mer primer/template DNA (dsDNA)
DNA 1: GGGGGAAGGATTCC
DNA 2: TCATGGAATCCTTCCCCC
As to B1, the binding result is given as “binds”.
